Assay results: US20220235344A1, “TRYPSIN VARIANTS WITH IMPROVED ENZYMATIC PROPERTIES” (BIOPHARMA TRANSLATIONSINSTITUT DESSAU FORSCHUNGS GMBH, priority 2018, published 2022)
“And” between values parts separate entries of the source, which are not always exact repeats. Identical values can stand only once.

What was measured:
Format in all cases: biochemical
[1] = test system: Bz-PGGYRKKAG-OH (acyl donor) / H-RKKAK-OH (acyl acceptor); test: Model transamidation at high and low substrate concentrations, A2C8 and K7F11; conditions: for product yield (%) / kcat, AL^app (mkat/mol) / kcat, AL^app/kcat, HL^app / kcat, HL^app (mkat/mol): no ZnCl2
Protocol: (§1) Model transamidation reactions were performed in a solution containing 15 to 250 μM acyl donor, 2 eq. of the corresponding acyl acceptor, varying concentrations of trypsin variant, 100 mM HEPES/NaOH pH 7.8, ±0.1 mM ZnC12, 100 mM NaCl, 10 mM CaCl2) at 30° C. Acyl donor and acyl acceptor had the same amino acids in P1′-P3′ position, e.g. Bz-[…]+H-RAHAK-OH or Bz-[…]+H-RKKAK-OH. Variations are indicated. The acyl acceptor could be equipped with a 2,4-Dinitrophenyl group (DNP) at the side chain of the terminal lysine, e.g. H-RAHAK(DNP)-OH or H-RKKAK(DNP)-OH. The reactions were started by the addition of enzyme. To record the time course of product formation and/or for kinetic evaluation of the reaction several aliquots of the reaction mixture were quenched with 25% (v/v) acetic acid at distinct time points within up to 4 hours. The composition of the reaction mixture was analyzed by UPCL with method I or II, depending on the absence (method 1) or presence (method II) of a 2,4-dinitrophenyl group within the acyl acceptor (see example 1). Measurements were performed as duplicates and errors were less than 5%.
(§2) The suitability of variant A2C8 and K7F11 as transamidases was further investigated in comparison to the native Trypsiligase II. Therefore the enzymatic parameters for the catalyzed transamidation reaction were determined by a model transamidation reaction using peptide substrates with the preferred recognition motive. In addition the model transamidation reaction was performed at high (250 μM) and low (15 μM) substrate concentrations to check, whether the new biocatalysts could also efficiently catalyze the desired reaction at low substrate concentration, which is a crucial requirement for the modification of therapeutic proteins. […] It was assumed that an improved transamidation activity is reached by introducing mutations which improve the affinity of the biocatalyst for the nucleophilic peptide and/or reduce its hydrolysis activity. Therefore corresponding experimental data describing both parameters for the native Trypsiligase II as well as variant A2C8 were determined.

[2] = target: T1, Bz-AAYRAHAG-OH (acyl donor) / H-RAHAK(DNP)-OH (acyl acceptor) (Rattus norvegicus, UniProt P00763, D194K/K66E/Y45H/Y65H); test: Zinc dependence of the transamidation reaction, Trypsiligase II
T1 construct: monomeric enzyme species (about 24 kDa); made in house; host or cells: Pichia pastoris X-33 (pPICZalphaA, secreted)
T1 sequence (P00763 24-246 Y45H/Y65H/K66E/D194K): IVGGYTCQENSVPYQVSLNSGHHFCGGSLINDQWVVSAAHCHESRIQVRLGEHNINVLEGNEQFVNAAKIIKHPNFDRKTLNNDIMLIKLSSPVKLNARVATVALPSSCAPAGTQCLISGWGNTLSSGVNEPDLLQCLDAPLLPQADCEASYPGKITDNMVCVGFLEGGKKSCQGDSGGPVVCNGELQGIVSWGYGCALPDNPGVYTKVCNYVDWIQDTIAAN
Protocol: as §1

[3] = target: T2, Bz-PGGYRAHAG-OH (acyl donor) / H-RAHAK-OH (acyl acceptor) (Rattus norvegicus, UniProt P00763, D194K/K66E/Y45H/Y65H); test: Model transamidation at high and low substrate concentrations, Trypsiligase II; conditions: for product yield (%) / kcat, AL^app (mkat/mol) / kcat, AL^app/kcat, HL^app / kcat, HL^app (mkat/mol): 0.1 mM ZnCl2
T2 construct: monomeric enzyme species (about 24 kDa); made in house; host or cells: Pichia pastoris X-33 (pPICZalphaA, secreted)
T2 sequence (P00763 24-246 Y45H/Y65H/K66E/D194K): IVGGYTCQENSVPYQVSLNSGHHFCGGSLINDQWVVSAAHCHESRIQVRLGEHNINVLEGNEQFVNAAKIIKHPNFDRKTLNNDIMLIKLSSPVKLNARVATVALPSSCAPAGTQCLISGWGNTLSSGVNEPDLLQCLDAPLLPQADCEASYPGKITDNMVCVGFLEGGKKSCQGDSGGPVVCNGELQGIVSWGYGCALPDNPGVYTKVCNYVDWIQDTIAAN
Protocol: as §1, §2

[4] = target: T3, H-RAHAK(DNP)-OH (acyl acceptor), acyl donor Bz-PGGYRAHAG-OH (Rattus norvegicus, UniProt P00763, D194K/K66E/Y45H/Y65H); test: KM value of the nucleophilic peptide (acyl acceptor); conditions: Zinc ions (100 μM): yes; 250 μM Bz-PGGYRAHAG-OH, varying H-RAHAK(DNP)-OH
T3 construct: made in house; host or cells: Pichia pastoris X-33
T3 sequence (P00763 24-246 Y45H/Y65H/K66E/D194K): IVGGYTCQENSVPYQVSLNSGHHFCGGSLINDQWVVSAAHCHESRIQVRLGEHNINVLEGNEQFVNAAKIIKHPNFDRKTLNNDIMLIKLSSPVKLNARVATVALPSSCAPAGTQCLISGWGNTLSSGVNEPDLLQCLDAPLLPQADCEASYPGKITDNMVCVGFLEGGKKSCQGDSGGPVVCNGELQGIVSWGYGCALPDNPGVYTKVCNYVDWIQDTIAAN
Protocol: For Trypsiligase II the measurements for KM values of the nucleophilic peptide (acyl acceptor) were carried out in the presence or absence of zinc ions due to its strong zinc ion dependency. In case of variant A2C8 measurements were carried out in the absence of zinc ions.
Transamidation reactions with Trypsiligase II and variant A2C8 were performed in a solution containing 250 μM of the acyl donor Bz-[…]-OH, varying concentrations of the acyl acceptor H-RAHAK(DNP)-OH (0-5000 μM for Trypsiligase II in the absence of zinc ions, 0-1500 μM for Trypsiligase II in the presence of zinc ions, 0-1000 μM for variant A2C8), 0.2-1.5 μM trypsin variant, 100 mM HEPES/NaOH pH 7.8, ±0.1 mM ZnCl2, 100 mM NaCl, 10 mM CaCl2 at 30° C. The reaction was started by the addition of enzyme. For kinetic evaluation of the reaction several aliquots of the reaction mixture were quenched with 25% (v/v) acetic acid at distinct time points within 30 minutes. The composition of the reaction mixture was analyzed by UPCL using method II (see example 1). UV absorption of the 2,4-Dinitrophenyl group (DNP), which is present in the acyl acceptor as well as in the aminolysis product, was detected at 360 nm. To determine the KM value of the nucleophilic peptide the initial rates for the aminolysis reaction were plotted against the corresponding acyl acceptor concentration and fitted to the Michaelis Menten equation. Measurements were performed as duplicates and errors were less than 5%.

[5] = target: T4, Bz-PGGYRAHAG-OH (acyl donor) / H-RAHAK(DNP)-OH (acyl acceptor) (Rattus norvegicus, UniProt P00763, D194K/K66E/Y45H/Y65H); test: Maximum product yield of transamidation (Table 7); conditions: Zinc ions (100 μM): yes; two equivalents of acyl acceptor and 250 μM acyl donor
T4 construct: made in house; host or cells: Pichia pastoris X-33
T4 sequence (P00763 24-246 Y45H/Y65H/K66E/D194K): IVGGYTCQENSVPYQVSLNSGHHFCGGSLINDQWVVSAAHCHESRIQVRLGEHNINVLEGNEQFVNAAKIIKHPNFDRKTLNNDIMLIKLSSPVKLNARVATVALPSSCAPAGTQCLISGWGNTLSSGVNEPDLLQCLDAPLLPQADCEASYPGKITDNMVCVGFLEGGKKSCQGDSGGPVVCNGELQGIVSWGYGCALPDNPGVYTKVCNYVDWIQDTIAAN
Protocol: as §1

[6] = low substrate concentration (15 μM)
[7] = R1-YRAH-R2, 250 μM acyl donor, 500 μM acyl acceptor, absence of zinc ions

B1: A2C8: Trypsiligase II + H40F, A55A, R96E, K97D, L99F, N143E, E151Y, S190V, Q192A, S214G, G219Q, A221T (protein)
chain: IVGGYTCQENSVPYQVSLNSGHFFCGGSLINDQWVVSAAHCHESRIQVRLGEHNINVLEGNEQFVNAAKIIKHPNFDEDTFNNDIMLIKLSSPVKLNARVATVALPSSCAPAGTQCLISGWGETLSSGVNYPDLLQCLDAPLLPQADCEASYPGKITDNMVCVGFLEGGKKVCAGDSGGPVVCNGELQGIVGWGYQCTLPDNPGVYTKVCNYVDWIQDTIAAN
[1]; [Substrate] 15 μM Bz-PGGYRKKAG-OH, 30 μM H-RKKAK-OH
  product yield (%): 46% and 46.2%
[1]; [Substrate] 15 μM
  kcat, AL^app (mkat/mol): 10.68 mkat/mol
  kcat, AL^app/kcat, HL^app: 7.4
  kcat, HL^app (mkat/mol): 1.44 mkat/mol
[1]; [Substrate] 250 μM Bz-PGGYRKKAG-OH, 500 μM H-RKKAK-OH
  product yield (%): 64.9%
[1]; [Substrate] 250 μM
  kcat, AL^app (mkat/mol): 71.61 mkat/mol
  kcat, AL^app/kcat, HL^app: 70 and 70.9
  kcat, HL^app (mkat/mol): 1.01 mkat/mol
[1]; [6]
  apparent turnover rate of aminolysis relative to hydrolysis: sevenfold higher apparent turnover rate
  fold higher product yield than the native Trypsiligase II: 14

B2: Trypsiligase II (trypsin variant Y39H/Y59H/K60E/D189K) (protein)
chain: IVGGYTCQENSVPYQVSLNSGHHFCGGSLINDQWVVSAAHCHESRIQVRLGEHNINVLEGNEQFVNAAKIIKHPNFDRKTLNNDIMLIKLSSPVKLNARVATVALPSSCAPAGTQCLISGWGNTLSSGVNEPDLLQCLDAPLLPQADCEASYPGKITDNMVCVGFLEGGKKSCQGDSGGPVVCNGELQGIVSWGYGCALPDNPGVYTKVCNYVDWIQDTIAAN
[2]
  dependence for zinc ions: strong dependence for zinc ions
  reduction of the product yield in the absence of zinc ions (factor): 4
[2]; R1-YRAH-R2, 250 μM acyl donor, 500 μM H-RAHAK(DNP)-OH, 2 μM trypsin variant, 0.1 mM ZnCl2
  kcat, AL^app + Zn^2+ (mkat/mol): 11.19 mkat/mol
[2]; R1-YRAH-R2, 250 μM acyl donor, 500 μM acyl acceptor, 0.1 mM ZnCl2
  product yield + Zn^2+ (%): 18% and 18.1%
[2]; [7]
  kcat, AL^app − Zn^2+ (mkat/mol): 0.89 mkat/mol
  product yield − Zn^2+ (%): 4% and 4.2%
[2]; YRAH
  drop of apparent turnover rate for the aminolysis reaction in the absence of zinc ions (factor): 12
[3]; [Substrate] 15 μM Bz-PGGYRAHAG-OH, 30 μM H-RAHAK-OH
  product yield (%): 3% and 3.2%
[3]; [Substrate] 15 μM
  kcat, AL^app (mkat/mol): 0.33 mkat/mol
  kcat, AL^app/kcat, HL^app: 0.1
  kcat, HL^app (mkat/mol): 2.84 mkat/mol
[3]; [Substrate] 250 μM Bz-PGGYRAHAG-OH, 500 μM H-RAHAK-OH
  product yield (%): 17% and 17.3%
[3]; [Substrate] 250 μM
  kcat, AL^app (mkat/mol): 14.40 mkat/mol
  kcat, AL^app/kcat, HL^app: 0.9
  kcat, HL^app (mkat/mol): 16.00 mkat/mol
[3]; substrate concentration 15 μM
  turnover rate of hydrolysis relative to aminolysis: tenfold higher turnover rate
[4]
  Km: 143 µM and 144 µM
[5]
  product yield (%): 18.1%
